The results in this text go back to publication PMC8229081, “A Novel Assay for Phosphoserine Phosphatase Exploiting Serine Acetyltransferase as the Coupling Enzyme” (Life, 2021).

The target of series [1] is T1, human PSP (phosphoserine phosphatase) (Homo sapiens, UniProt P78330).
T1 construct: gene PSPH
T1 sequence (P78330 1-225): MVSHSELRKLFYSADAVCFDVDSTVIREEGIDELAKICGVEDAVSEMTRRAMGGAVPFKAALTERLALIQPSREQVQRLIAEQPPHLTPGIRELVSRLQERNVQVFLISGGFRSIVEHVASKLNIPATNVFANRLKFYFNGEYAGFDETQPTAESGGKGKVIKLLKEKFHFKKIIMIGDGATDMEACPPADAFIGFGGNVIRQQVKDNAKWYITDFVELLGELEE
Conditions: 40 µM L-OPS, 15.7 nM PSP, 3 mM MgCl2, pH 7, 37 °C; product inhibition.

Substrate in the series “purified protein”: N[C@@H](COP(=O)(O)O)C(=O)O
The experiment in a line: purified protein. The format is biochemical, Homo sapiens. Conditions: 50 mM HEPES, 100 mM KCl, 3 mM MgCl2, pH 7, 37 °C, 170 µM acetyl-CoA, 0.5 mM DTNB, 430 mU HiSAT removing product L-serine.

As to `O=P(O)(O)O` [phosphate], the “% inhibition at 50 mM” value in series [1] came to 50%.

B1: human PSP (phosphoserine phosphatase) (Homo sapiens) (protein)
chain: T1 sequence (P78330 1-225)
notes: dimer
As for B1, in “purified protein”, the Km was 40.3 ± 2.8 µM, the kcat amounted to 44.8 ± 0.9 s⁻¹ and the kcat/Km was found to be 1.11e+06 ± 100000 M⁻¹ s⁻¹.
